Data from PMC9482650, “Quantitative fragmentomics allow affinity mapping of interactomes” (Nature Communications, 2022).
Numbering of substitutions follows the chain as printed. One block for each binder: values may come before it.

What was measured:
Assay in all cases: holdup assay
Parameters in all cases: key: below the threshold = too weak to quantify, mostly under pKd 3.1 to 4
DLG1_3, Q12959 = biological target: DLG1_3, Q12959
LDB3, O75112 = biological target: LDB3, O75112
SNTG2, Q9NY99 = biological target: T1, SNTG2, Q9NY99
T1 sequence (Q9NY99 68-166, limits assumed, looked up): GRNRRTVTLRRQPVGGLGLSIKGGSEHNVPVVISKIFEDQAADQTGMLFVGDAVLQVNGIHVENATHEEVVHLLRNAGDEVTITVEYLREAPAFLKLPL

DLG1_1, Q12959 = biological target: DLG1_1, Q12959
LNX1_3, Q8TBB1 = biological target: LNX1_3, Q8TBB1
Inadl_5, Q8NI35 = biological target: Inadl_5, Q8NI35
PARD3B_1, Q8TEW8 = biological target: T2, PARD3B_1, Q8TEW8
T2 sequence (Q8TEW8 196-299, limits assumed, looked up): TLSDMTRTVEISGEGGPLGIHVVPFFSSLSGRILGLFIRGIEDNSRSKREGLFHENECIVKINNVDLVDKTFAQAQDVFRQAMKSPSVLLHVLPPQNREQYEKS

TJP1_3, Q07157 = biological target: TJP1_3, Q07157
LIN7A, O14910 = biological target: T3, LIN7A, O14910
T3 sequence (O14910 103-200, limits assumed, looked up): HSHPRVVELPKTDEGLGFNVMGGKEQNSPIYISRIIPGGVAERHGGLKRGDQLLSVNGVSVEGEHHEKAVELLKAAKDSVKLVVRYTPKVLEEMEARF

ARHGAP21, Q5T5U3 = biological target: T4, ARHGAP21, Q5T5U3
T4 sequence (Q5T5U3 45-169, limits assumed, looked up): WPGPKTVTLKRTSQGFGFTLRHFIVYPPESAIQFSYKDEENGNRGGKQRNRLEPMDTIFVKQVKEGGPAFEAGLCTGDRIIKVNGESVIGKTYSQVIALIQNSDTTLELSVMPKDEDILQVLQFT

PICK1, Q9NRD5 = biological target: PICK1, Q9NRD5
GRIP2_3, Q9C0E4 = biological target: GRIP2_3, Q9C0E4
GRIP2_7, Q9C0E4 = biological target: GRIP2_7, Q9C0E4
IL16_3, Q14005 = biological target: IL16_3, Q14005
MAST2, Q6P0Q8 = biological target: MAST2, Q6P0Q8
MAGI3_2, Q5TCQ9 = biological target: MAGI3_2, Q5TCQ9
MPDZ_5, O75970 = biological target: T5, MPDZ_5, O75970
T5 sequence (O75970 695-796, limits assumed, looked up): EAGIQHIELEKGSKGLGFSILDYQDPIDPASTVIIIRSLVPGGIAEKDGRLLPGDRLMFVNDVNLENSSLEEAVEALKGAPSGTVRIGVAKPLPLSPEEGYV

FRMPD4, Q14CM0 = biological target: FRMPD4, Q14CM0
TX1BP3, O14907 = biological target: T6, TX1BP3, O14907
T6 sequence (O14907 10-122, limits assumed, looked up): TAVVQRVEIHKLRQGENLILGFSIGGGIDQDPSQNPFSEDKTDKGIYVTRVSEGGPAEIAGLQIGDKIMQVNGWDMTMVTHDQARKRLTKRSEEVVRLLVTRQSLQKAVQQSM

DLG3_3, Q92796 = biological target: T7, DLG3_3, Q92796
T7 sequence (Q92796 374-475, limits assumed, looked up): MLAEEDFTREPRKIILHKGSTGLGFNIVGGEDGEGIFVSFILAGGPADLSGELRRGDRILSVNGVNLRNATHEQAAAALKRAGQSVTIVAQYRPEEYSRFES

PCLO, Q9Y6V0 = biological target: T8, PCLO, Q9Y6V0
T8 sequence (Q9Y6V0 4491-4600, limits assumed, looked up): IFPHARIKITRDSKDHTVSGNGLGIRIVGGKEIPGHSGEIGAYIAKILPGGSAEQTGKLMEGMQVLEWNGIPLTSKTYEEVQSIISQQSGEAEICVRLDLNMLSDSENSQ

PDZD7_3, Q9H5P4 = biological target: T9, PDZD7_3, Q9H5P4
T9 sequence (Q9H5P4 857-944, limits assumed, looked up): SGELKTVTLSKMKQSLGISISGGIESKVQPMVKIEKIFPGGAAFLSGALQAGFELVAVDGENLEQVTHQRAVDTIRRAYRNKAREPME

LIN7B, Q9HAP6 = biological target: T10, LIN7B, Q9HAP6
T10 sequence (Q9HAP6 88-185, limits assumed, looked up): T3 sequence (O14910 103-200, limits assumed, looked up) with S2A, V20I, I35V, E42D, H65Q, K77Q, D78G, K89R

GRIP2_5, Q9C0E4 = biological target: GRIP2_5, Q9C0E4
DLG1_2, Q12959 = biological target: DLG1_2, Q12959
GRASP, Q7Z6J2 = biological target: GRASP, Q7Z6J2
Inadl_10, Q8NI35 = biological target: Inadl_10, Q8NI35
DLG2_2, Q15700 = biological target: DLG2_2, Q15700
[1] = plain residues with an end cap or a label only (N-terminal biotin on a linker: ahx)
[2] = plain residues with an end cap or a label only (N-terminal biotin on a linker: ttds)

Chain of MAGI3_2, Q5TCQ9 (Q5TCQ9 398-503): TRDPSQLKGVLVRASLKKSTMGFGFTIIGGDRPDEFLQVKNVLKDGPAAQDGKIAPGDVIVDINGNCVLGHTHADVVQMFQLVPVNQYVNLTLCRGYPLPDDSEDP
Chain of TJP1_3, Q07157 (Q07157 416-512): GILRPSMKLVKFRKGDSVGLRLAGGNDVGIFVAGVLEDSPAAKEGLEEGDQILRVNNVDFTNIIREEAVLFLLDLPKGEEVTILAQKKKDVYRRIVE
Chain of GRIP2_5, Q9C0E4 (Q9C0E4 544-642): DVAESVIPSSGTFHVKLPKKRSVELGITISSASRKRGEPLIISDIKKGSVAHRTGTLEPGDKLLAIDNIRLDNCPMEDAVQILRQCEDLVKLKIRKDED
Chain of IL16_3, Q14005 (Q14005 1107-1207): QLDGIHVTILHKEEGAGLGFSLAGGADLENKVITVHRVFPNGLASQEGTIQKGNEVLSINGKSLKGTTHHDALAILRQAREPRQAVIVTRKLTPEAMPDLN
Chain of FRMPD4, Q14CM0 (Q14CM0 67-160): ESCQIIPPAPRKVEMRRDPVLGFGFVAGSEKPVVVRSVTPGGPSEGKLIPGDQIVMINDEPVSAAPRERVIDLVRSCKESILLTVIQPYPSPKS
Chain of DLG2_2, Q15700 (Q15700 189-283): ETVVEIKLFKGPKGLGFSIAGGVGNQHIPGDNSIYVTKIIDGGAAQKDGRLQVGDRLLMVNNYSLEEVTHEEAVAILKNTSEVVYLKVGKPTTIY
Chain of GRIP2_7, Q9C0E4 (Q9C0E4 934-1023): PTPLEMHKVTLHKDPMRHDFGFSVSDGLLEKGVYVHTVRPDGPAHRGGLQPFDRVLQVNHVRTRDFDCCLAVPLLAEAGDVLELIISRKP
Chain of MAST2, Q6P0Q8 (Q6P0Q8 1099-1202): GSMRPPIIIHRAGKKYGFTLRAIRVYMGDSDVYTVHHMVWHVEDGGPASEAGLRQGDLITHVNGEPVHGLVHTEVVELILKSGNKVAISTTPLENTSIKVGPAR
Chain of Inadl_10, Q8NI35 (Q8NI35 1673-1763): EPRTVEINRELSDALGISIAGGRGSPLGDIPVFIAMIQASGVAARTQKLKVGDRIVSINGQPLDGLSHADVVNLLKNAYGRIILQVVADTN
Chain of GRIP2_3, Q9C0E4 (Q9C0E4 238-339): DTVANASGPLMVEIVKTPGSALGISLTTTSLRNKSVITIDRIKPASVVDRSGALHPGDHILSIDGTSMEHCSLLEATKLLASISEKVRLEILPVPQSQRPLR
Chain of PICK1, Q9NRD5 (Q9NRD5 17-115): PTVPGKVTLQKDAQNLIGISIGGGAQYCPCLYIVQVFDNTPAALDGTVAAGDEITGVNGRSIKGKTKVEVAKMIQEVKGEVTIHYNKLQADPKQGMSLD
Chain of Inadl_5, Q8NI35 (Q8NI35 673-780): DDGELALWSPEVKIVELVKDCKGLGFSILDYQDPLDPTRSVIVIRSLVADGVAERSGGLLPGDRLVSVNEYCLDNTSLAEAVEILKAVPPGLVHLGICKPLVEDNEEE
Chain of GRASP, Q7Z6J2 (Q7Z6J2 96-193): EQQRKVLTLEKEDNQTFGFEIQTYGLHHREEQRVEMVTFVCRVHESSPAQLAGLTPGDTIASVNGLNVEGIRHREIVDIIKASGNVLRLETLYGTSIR
Chain of LNX1_3, Q8TBB1 (Q8TBB1 500-596): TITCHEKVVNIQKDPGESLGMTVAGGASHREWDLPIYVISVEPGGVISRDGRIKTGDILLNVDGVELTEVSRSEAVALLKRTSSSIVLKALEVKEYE
Chain of LDB3, O75112 (O75112 1-94): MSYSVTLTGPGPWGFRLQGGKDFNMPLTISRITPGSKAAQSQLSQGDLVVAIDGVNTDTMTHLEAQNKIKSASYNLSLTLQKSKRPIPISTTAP

pKd (DLG1_3, Q12959; [1]): below the threshold
pKd (LDB3, O75112; [1]): below the threshold
pKd (SNTG2, Q9NY99; [1]): below the threshold
pKd (DLG1_1, Q12959; [1]): below the threshold
pKd (LNX1_3, Q8TBB1; [1]): below the threshold
pKd (Inadl_5, Q8NI35; [1]): below the threshold
pKd (PARD3B_1, Q8TEW8; [1]): below the threshold
pKd (TJP1_3, Q07157; [1]): below the threshold
pKd (LIN7A, O14910; [1]): below the threshold
pKd (ARHGAP21, Q5T5U3; [1]): below the threshold
pKd (PICK1, Q9NRD5; [1]): below the threshold
pKd (GRIP2_3, Q9C0E4; [1]): below the threshold
pKd (GRIP2_7, Q9C0E4; [1]): below the threshold
pKd (IL16_3, Q14005; [1]): below the threshold
pKd (MAST2, Q6P0Q8; [1]): 4.21
pKd (MAGI3_2, Q5TCQ9; [1]): 4.3
pKd (MPDZ_5, O75970; [1]): below the threshold
pKd (FRMPD4, Q14CM0; [1]): below the threshold
pKd (TX1BP3, O14907; [1]): 3.95
pKd (DLG3_3, Q92796; [1]): below the threshold
pKd (PCLO, Q9Y6V0; [1]): below the threshold
pKd (PDZD7_3, Q9H5P4; [1]): below the threshold
pKd (LIN7B, Q9HAP6; [1]): below the threshold
pKd (GRIP2_5, Q9C0E4; [1]): below the threshold
Binder: LCKSHAFSHV [PDLIM7, Q9NR12;Q9NR12-1]

pKd (DLG1_3, Q12959; [2]): below the threshold
pKd (LDB3, O75112; [2]): below the threshold
pKd (SNTG2, Q9NY99; [2]): below the threshold
pKd (DLG1_1, Q12959; [2]): 3.53
pKd (LNX1_3, Q8TBB1; [2]): 3.67
pKd (Inadl_5, Q8NI35; [2]): below the threshold
pKd (PARD3B_1, Q8TEW8; [2]): below the threshold
pKd (DLG1_2, Q12959; [2]): 3.99
pKd (TJP1_3, Q07157; [2]): below the threshold
pKd (LIN7A, O14910; [2]): below the threshold
pKd (GRASP, Q7Z6J2; [2]): 4.56
pKd (ARHGAP21, Q5T5U3; [2]): below the threshold
pKd (PICK1, Q9NRD5; [2]): below the threshold
pKd (GRIP2_3, Q9C0E4; [2]): below the threshold
pKd (GRIP2_7, Q9C0E4; [2]): below the threshold
pKd (IL16_3, Q14005; [2]): below the threshold
pKd (MAST2, Q6P0Q8; [2]): 4.34
pKd (MAGI3_2, Q5TCQ9; [2]): 3.84
pKd (MPDZ_5, O75970; [2]): 3.49
pKd (FRMPD4, Q14CM0; [2]): below the threshold
pKd (TX1BP3, O14907; [2]): 3.97
pKd (Inadl_10, Q8NI35; [2]): below the threshold
pKd (DLG3_3, Q92796; [2]): below the threshold
pKd (PCLO, Q9Y6V0; [2]): below the threshold
pKd (PDZD7_3, Q9H5P4; [2]): below the threshold
pKd (LIN7B, Q9HAP6; [2]): below the threshold
pKd (GRIP2_5, Q9C0E4; [2]): below the threshold
pKd (DLG2_2, Q15700; [2]): 3.87
Binder: QPGTPTRTAV [MAP2K2, P36507]

pKd (DLG1_3, Q12959; [2]): 3.57
pKd (LDB3, O75112; [2]): below the threshold
pKd (SNTG2, Q9NY99; [2]): 4.45
pKd (DLG1_1, Q12959; [2]): 3.79
pKd (LNX1_3, Q8TBB1; [2]): below the threshold
pKd (Inadl_5, Q8NI35; [2]): below the threshold
pKd (PARD3B_1, Q8TEW8; [2]): below the threshold
pKd (DLG1_2, Q12959; [2]): 4.79
pKd (TJP1_3, Q07157; [2]): below the threshold
pKd (LIN7A, O14910; [2]): below the threshold
pKd (GRASP, Q7Z6J2; [2]): below the threshold
pKd (ARHGAP21, Q5T5U3; [2]): 3.78
pKd (PICK1, Q9NRD5; [2]): below the threshold
pKd (GRIP2_3, Q9C0E4; [2]): below the threshold
pKd (GRIP2_7, Q9C0E4; [2]): below the threshold
pKd (IL16_3, Q14005; [2]): below the threshold
pKd (MAST2, Q6P0Q8; [2]): 5.52
pKd (MAGI3_2, Q5TCQ9; [2]): below the threshold
pKd (MPDZ_5, O75970; [2]): below the threshold
pKd (FRMPD4, Q14CM0; [2]): 3.49
pKd (TX1BP3, O14907; [2]): 4.28
pKd (Inadl_10, Q8NI35; [2]): below the threshold
pKd (DLG3_3, Q92796; [2]): below the threshold
pKd (PCLO, Q9Y6V0; [2]): below the threshold
pKd (PDZD7_3, Q9H5P4; [2]): 4.05
pKd (LIN7B, Q9HAP6; [2]): below the threshold
pKd (GRIP2_5, Q9C0E4; [2]): below the threshold
pKd (DLG2_2, Q15700; [2]): 4.19
Binder: CLDTSRETDL [KCNA5, P22460]

pKd (DLG1_3, Q12959; [1]): below the threshold
pKd (LDB3, O75112; [1]): below the threshold
pKd (SNTG2, Q9NY99; [1]): below the threshold
pKd (DLG1_1, Q12959; [1]): below the threshold
pKd (LNX1_3, Q8TBB1; [1]): below the threshold
pKd (Inadl_5, Q8NI35; [1]): below the threshold
pKd (PARD3B_1, Q8TEW8; [1]): below the threshold
pKd (DLG1_2, Q12959; [1]): 3.85
pKd (TJP1_3, Q07157; [1]): below the threshold
pKd (LIN7A, O14910; [1]): below the threshold
pKd (GRASP, Q7Z6J2; [1]): 4.86
pKd (ARHGAP21, Q5T5U3; [1]): below the threshold
pKd (PICK1, Q9NRD5; [1]): below the threshold
pKd (GRIP2_3, Q9C0E4; [1]): below the threshold
pKd (GRIP2_7, Q9C0E4; [1]): below the threshold
pKd (IL16_3, Q14005; [1]): below the threshold
pKd (MAST2, Q6P0Q8; [1]): 4.92
pKd (MAGI3_2, Q5TCQ9; [1]): below the threshold
pKd (MPDZ_5, O75970; [1]): below the threshold
pKd (FRMPD4, Q14CM0; [1]): below the threshold
pKd (TX1BP3, O14907; [1]): below the threshold
pKd (Inadl_10, Q8NI35; [1]): below the threshold
pKd (DLG3_3, Q92796; [1]): below the threshold
pKd (PCLO, Q9Y6V0; [1]): below the threshold
pKd (PDZD7_3, Q9H5P4; [1]): 3.87
pKd (LIN7B, Q9HAP6; [1]): below the threshold
pKd (GRIP2_5, Q9C0E4; [1]): below the threshold
pKd (DLG2_2, Q15700; [1]): below the threshold
Binder: EDEDEQVSAV [RAPGEF2, Q9Y4G8]

pKd (DLG1_3, Q12959; [1]): below the threshold
pKd (LDB3, O75112; [1]): below the threshold
pKd (SNTG2, Q9NY99; [1]): below the threshold
pKd (DLG1_1, Q12959; [1]): below the threshold
pKd (LNX1_3, Q8TBB1; [1]): below the threshold
pKd (Inadl_5, Q8NI35; [1]): 4.25
pKd (PARD3B_1, Q8TEW8; [1]): below the threshold
pKd (DLG1_2, Q12959; [1]): below the threshold
pKd (TJP1_3, Q07157; [1]): below the threshold
pKd (LIN7A, O14910; [1]): below the threshold
pKd (GRASP, Q7Z6J2; [1]): below the threshold
pKd (ARHGAP21, Q5T5U3; [1]): below the threshold
pKd (PICK1, Q9NRD5; [1]): below the threshold
pKd (GRIP2_3, Q9C0E4; [1]): below the threshold
pKd (GRIP2_7, Q9C0E4; [1]): 4.55
pKd (IL16_3, Q14005; [1]): below the threshold
pKd (MAST2, Q6P0Q8; [1]): below the threshold
pKd (MAGI3_2, Q5TCQ9; [1]): 4.6
pKd (MPDZ_5, O75970; [1]): 3.85
pKd (FRMPD4, Q14CM0; [1]): 3.58
pKd (TX1BP3, O14907; [1]): below the threshold
pKd (Inadl_10, Q8NI35; [1]): below the threshold
pKd (DLG3_3, Q92796; [1]): below the threshold
pKd (PCLO, Q9Y6V0; [1]): below the threshold
pKd (PDZD7_3, Q9H5P4; [1]): below the threshold
pKd (LIN7B, Q9HAP6; [1]): below the threshold
pKd (GRIP2_5, Q9C0E4; [1]): below the threshold
pKd (DLG2_2, Q15700; [1]): below the threshold
Binder: KKNKDKEYYV [NRXN1, Q9ULB1]
